Laboratory results from patent publication US20110236900, “NOVEL MUTS PROTEIN AND METHOD FOR DETERMING MUTATION USING THE SAME” (RIKEN, published 2011).

Columns and labels:
[1] = system: T1, Aac MutS (Alicyclobacillus acidocaldarius subsp. acidocaldarius JCM5260); test: SPR; details: 20 mM MgCl2
T1 sequence: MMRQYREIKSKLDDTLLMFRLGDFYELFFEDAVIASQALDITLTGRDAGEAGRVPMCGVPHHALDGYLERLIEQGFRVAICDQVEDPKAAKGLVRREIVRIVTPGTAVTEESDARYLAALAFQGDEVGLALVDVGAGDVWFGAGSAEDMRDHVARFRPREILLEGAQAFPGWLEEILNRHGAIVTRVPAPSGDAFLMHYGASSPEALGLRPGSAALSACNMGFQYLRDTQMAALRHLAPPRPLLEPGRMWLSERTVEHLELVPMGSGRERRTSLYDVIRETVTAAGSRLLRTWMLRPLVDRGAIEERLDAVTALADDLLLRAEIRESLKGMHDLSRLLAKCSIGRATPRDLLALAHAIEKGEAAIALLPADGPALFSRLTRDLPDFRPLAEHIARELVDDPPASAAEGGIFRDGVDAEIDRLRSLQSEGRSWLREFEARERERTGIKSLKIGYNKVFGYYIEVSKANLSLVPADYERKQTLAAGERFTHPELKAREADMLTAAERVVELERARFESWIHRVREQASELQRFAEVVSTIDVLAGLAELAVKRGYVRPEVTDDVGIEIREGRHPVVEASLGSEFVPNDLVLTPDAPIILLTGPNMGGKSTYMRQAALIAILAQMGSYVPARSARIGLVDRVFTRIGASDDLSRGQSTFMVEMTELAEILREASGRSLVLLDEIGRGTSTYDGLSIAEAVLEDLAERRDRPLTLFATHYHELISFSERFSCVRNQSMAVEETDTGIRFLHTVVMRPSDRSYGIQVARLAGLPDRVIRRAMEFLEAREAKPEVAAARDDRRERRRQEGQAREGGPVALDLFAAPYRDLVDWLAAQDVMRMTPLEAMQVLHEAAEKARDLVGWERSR

Aac MutS [2] = biological target: T2, Aac MutS (Alicyclobacillus acidocaldarius subsp. …); test: SPR; Example 2; no nucleotide, 20 mM MgCl2, 50 mM KCl, pH 7.6; details: tags: none stated (pET17b, E. coli BL21-CodonPlus(DE3)RIL); chain copies: 2 stated; label: 5'-biotin on T-strand; single G-T mismatch
T2 chain: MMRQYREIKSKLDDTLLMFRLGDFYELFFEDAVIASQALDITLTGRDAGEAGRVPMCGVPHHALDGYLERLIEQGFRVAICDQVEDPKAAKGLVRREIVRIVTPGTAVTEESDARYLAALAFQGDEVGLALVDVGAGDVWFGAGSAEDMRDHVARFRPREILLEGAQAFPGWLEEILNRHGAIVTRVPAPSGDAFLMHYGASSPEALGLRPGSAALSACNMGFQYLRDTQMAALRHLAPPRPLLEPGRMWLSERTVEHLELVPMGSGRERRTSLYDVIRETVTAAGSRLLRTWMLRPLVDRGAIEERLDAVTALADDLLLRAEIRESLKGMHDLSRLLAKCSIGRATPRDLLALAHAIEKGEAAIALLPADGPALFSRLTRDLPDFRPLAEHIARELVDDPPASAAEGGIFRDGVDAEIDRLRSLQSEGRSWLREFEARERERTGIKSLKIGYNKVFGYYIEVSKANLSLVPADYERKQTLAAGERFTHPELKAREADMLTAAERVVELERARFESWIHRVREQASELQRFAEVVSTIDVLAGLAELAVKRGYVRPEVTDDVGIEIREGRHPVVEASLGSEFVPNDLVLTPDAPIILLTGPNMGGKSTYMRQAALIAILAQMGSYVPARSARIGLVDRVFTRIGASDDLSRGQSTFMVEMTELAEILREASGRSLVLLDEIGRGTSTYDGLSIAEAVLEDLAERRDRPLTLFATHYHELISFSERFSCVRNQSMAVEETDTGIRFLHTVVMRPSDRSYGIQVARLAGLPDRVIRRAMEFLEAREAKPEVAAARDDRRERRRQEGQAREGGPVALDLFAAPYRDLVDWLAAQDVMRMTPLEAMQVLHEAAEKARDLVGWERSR
Method: (§1) The chip was set in BIACORE3000, then the running buffer was passed through a channel of the chip at a flow rate of 10 μL/min, and an experiment was started as follows. First, 5 μmol/L C-strand DNA, 5 μmol/L T-strand DNA, and 5 μmol/L Del-strand DNA as regands were passed through the respective three flow cells contained in the chip at a flow rate of 10 μL/min, and they were bound to each other until the Resonance Unit reached about 150 RU (Resonance Unit). Subsequently, 5 μmol/L of the G-strand DNA was injected into each of the flow cells at a flow rate of 20 μL/min for 2 minutes, and thereafter, the flow cells were washed with the running buffer for 10 minutes. Thus, double-stranded DNAs between the C-strand DNA and the G-strand DNA, between T-strand DNA and the same, and between the Del-strand DNA and the same were formed. Then, an Aac MutS solution with the predetermined concentration (0.1, 0.2, 0.5, 1, 2, or 4 μmol/L) was injected into each of the flow cells at a flow rate of 20 μL/min for 10 minutes, and thereafter, the flow cells were washed with the running buffer for 20 minutes. While injecting and washing, signal intensity was measured from the start of the injection of the Aac MutS. In Comparative Example 1, signal intensity was measured by the same treatment as that of Example 2 using Taq MutS derived from Thermus aquatieus as substitute for the Aac MutS.

Aac MutS [3] = biological target: T2, Aac MutS; test: SPR; Example 3-1; 1 mM ADP, 20 mM MgCl2, 50 mM KCl, pH 7.6; details: tags: none stated (pET17b, E. coli BL21-CodonPlus(DE3)RIL); chain copies: 2 stated; label: 5'-biotin on T-strand; single G-T mismatch
Method: as §1, with “Then, an Aac MutS solution with the predetermined concentration (0.1, 0.2, 0.5, 1, 2, or 4 μmol/L) was injected into each of the flow cells at a flow rate of 20 μL/min for 10 minutes, and thereafter, the flow cells were washed with the running buffer for 20 minutes.” left out
(§2) The signal intensity was measured in the same manner as in Example 2 except that 1 mmol/L ADP or ATP was added to the running buffer of Example 2. […] In Comparative Example 2, the signal intensity was measured using the Taq MutS in the same manner as in Example 3. […]

Taq MutS [4] = biological target: T3, Taq MutS (Thermus aquaticus, UniProt Q56215 Q56215:1-811); test: SPR; Comp. Ex. 1; no nucleotide, 20 mM MgCl2, 50 mM KCl, pH 7.6; details: label: 5'-biotin on T-strand; single G-T mismatch
T3 sequence: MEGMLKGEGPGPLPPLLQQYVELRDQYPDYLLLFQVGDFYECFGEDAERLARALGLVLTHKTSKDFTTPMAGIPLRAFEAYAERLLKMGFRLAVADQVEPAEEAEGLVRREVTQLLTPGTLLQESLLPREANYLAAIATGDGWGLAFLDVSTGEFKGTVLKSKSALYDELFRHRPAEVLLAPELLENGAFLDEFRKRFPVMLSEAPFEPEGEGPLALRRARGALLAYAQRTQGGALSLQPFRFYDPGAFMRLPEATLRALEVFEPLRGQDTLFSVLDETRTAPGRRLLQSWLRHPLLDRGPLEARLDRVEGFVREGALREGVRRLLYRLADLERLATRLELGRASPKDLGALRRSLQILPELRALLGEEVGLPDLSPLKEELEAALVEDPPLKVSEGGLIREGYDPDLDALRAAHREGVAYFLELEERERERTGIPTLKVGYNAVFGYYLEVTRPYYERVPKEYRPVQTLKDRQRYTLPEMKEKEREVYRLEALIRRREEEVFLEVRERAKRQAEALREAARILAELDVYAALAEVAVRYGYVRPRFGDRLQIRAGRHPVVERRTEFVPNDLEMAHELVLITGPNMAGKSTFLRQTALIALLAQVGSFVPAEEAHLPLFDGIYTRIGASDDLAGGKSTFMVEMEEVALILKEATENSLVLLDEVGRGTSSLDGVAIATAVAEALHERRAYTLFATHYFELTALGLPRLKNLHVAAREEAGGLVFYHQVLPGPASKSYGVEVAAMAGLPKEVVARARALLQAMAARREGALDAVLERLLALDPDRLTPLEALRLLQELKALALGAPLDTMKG
Method: as §1

Taq MutS [5] = biological target: T3, Taq MutS; test: SPR; Comp. Ex. 2-1; 1 mM ADP, 20 mM MgCl2
Method: as §1, with “Then, an Aac MutS solution with the predetermined concentration (0.1, 0.2, 0.5, 1, 2, or 4 μmol/L) was injected into each of the flow cells at a flow rate of 20 μL/min for 10 minutes, and thereafter, the flow cells were washed with the running buffer for 20 minutes.” left out
as §2

Taq MutS [6] = biological target: T3, Taq MutS; test: SPR; Comp. Ex. 1; no nucleotide, 20 mM MgCl2; details: label: 5'-biotin on C-strand
Method: as §1

Work on “CCGCTGAATTGCACCGAGCTCGATCCTCGATGATCCTAAGCGATCCATG (double strand) [C/G fully-matched duplex]” yielded a Kd ([1]; Example 2, no nucleotide, text says binding not found) of 65500 nM and a Kd ([1]; Example 3-1, 1 mM ADP, binding described as sufficiently suppressed) of 19800 nM.

B1: T/G mismatched duplex (dsDNA)
DNA 1: CCGCTGAATTGCACCGAGCTTGATCCTCGATGATCCTAAGCGATCCATG
DNA 2: CATGGATCGCTTAGGATCATCGAGGATCGAGCTCGGTGCAATTCAGCGG
Work on B1 yielded a Kd (Aac MutS [2]) of 1450 nM, a Kd (Aac MutS [3]) of 330 nM and a Kd (Taq MutS [4]) of 622 nM. It also gave a Kd (Taq MutS [5]; label: 5'-biotin on T-strand, single G-T mismatch) of 2260 nM.

B2: C/G fully-matched duplex (dsDNA)
DNA 1: CCGCTGAATTGCACCGAGCTCGATCCTCGATGATCCTAAGCGATCCATG
DNA 2: CATGGATCGCTTAGGATCATCGAGGATCGAGCTCGGTGCAATTCAGCGG
B2 was tested, and the Kd (Taq MutS [5]; label: 5'-biotin on C-strand) was 6580 nM and the Kd (Taq MutS [6]) was 2270 nM.
